Drawing on patent US5741673, “Nucleic acid encoding a novel homeobox factor which stimulates insulin expression in pancreatic islet cells” (Research Development Foundation), this text covers binding result and activity for 4 molecules.

Series [1] deals with ITF-1 fragment aa 124-283 (thrombin-cleaved from GST fusion) (rat, UniProt P52947 SEQ:124-283). The experiment in a line: footprint; DNase I; also bound in EMSA. The following applies: tags: GST removed by thrombin.
The target of series [2] is T1, ITF-1 full length (CMV expression) (rat, UniProt P52947 SEQ:1-283). The experiment in a line: cell_activity; TSE I somatostatin reporter in HeLa cells.
T1 sequence (P52947 whole entry): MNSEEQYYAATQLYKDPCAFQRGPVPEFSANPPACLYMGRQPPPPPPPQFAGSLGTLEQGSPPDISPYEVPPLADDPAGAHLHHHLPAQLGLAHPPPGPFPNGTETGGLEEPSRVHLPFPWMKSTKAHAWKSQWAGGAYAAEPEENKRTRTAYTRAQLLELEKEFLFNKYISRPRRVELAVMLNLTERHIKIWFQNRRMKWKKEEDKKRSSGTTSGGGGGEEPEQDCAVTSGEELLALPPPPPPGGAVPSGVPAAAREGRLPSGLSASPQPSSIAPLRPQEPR
The target in series [3] is T1, ITF-1 full length (CMV expression). The experiment in a line: cell_activity; TSE II somatostatin reporter in HeLa cells.

ITF-1 fragment aa 124-283 (thrombin-cleaved from GST fusion), sequence (P52947 124-283): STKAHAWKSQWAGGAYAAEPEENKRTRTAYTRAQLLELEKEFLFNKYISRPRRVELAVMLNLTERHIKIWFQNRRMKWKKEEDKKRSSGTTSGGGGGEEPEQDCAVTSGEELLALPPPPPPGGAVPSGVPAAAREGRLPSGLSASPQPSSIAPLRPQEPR

B1: rat insulin I P-Box (dsDNA)
DNA 1: CTTAATGGGCCAAACGGCA
DNA 2: TGCCGTTTGGCCCATTAAG
B1: the binding result in series [1] is recorded as “binds”.

B2: somatostatin TSE I (dsDNA)
DNA 1: TTGCGAGGCTAATGGTGCG
DNA 2: CGCACCATTAGCCTCGCAA
Take B2: the activity in series [2] was around 12 fold.

B3: rat insulin I FLAT (E2) (dsDNA)
DNA 1: TTAATAATCTAATTACCC
DNA 2: GGGTAATTAGATTATTAA
For B3, the binding result in series [1] is given as “binds”.

B4: somatostatin TSE II (dsDNA)
DNA 1: GATCTCAGTAATAATCATGCAG
DNA 2: CTGCATGATTATTACTGAGATC
Turning to B4, the activity in series [3] was around 12 fold.
